# Source: patent publication US20250197505A1 (DREN BIO, published 2025)
# T1: human CD94 protein (human, UniProt Q13241 34-179, limits assumed)
# T1 sequence (looked up): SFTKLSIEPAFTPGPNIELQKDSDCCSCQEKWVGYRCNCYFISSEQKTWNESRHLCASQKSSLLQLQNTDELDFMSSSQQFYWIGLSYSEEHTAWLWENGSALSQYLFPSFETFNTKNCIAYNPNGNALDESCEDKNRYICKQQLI
# T2: human CD94 expressed on cells (human primary NK cells in PBMCs; HEK cells expressing human CD94) (human, UniProt Q13241 1-179)
# T2 construct: whole, on cells; also called KLRD1; Natural killer cells antigen CD94
# T2 sequence (looked up): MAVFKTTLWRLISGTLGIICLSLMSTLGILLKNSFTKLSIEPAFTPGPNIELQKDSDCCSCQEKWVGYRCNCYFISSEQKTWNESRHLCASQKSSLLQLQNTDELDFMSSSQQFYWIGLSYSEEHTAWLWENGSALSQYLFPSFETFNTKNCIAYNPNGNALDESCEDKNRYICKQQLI
# B1: ATX-130 Fab (Fab, V domains shown)
# VH: EVQLLESGGGLVKPGGSLRLSCAASGFTFSSYSMNWVRQAPGKGLEWVSSISTSSNFIYYADSVKGRFTISRDNAKNSLYLQMNSLRAEDTAVYYCARDLGRYYYYMDVWGKGTTVTVSS
# VL: DIVMTQSPSSLSASVGDRVTITCRASQSISSWLAWYQQKPGKAPKSLIYAASSLQSGVPSKFSGSGSGTDFTLTISSLQPEDVATYYCQKYNSAPFTFGPGTKVDIK
# notes: Fab version
# B2: Ab.22 Fab (Fab, V domains shown)
# VH: EVQLVESGGGLVKPGGSLRLSCAASGFTFSSYSMNWVRQAPGKGLEWVSSISTSSNFIYYADSVKGRFTISRDNAKNSLYLQMNSLRAEDTAVYYCARDLGRYYYYMDVWGKGTTVTVSS
# VL: DIVMTQSPSSLSASVGDRVTITCRASQSISSWLAWYQQKPGKAPKSLIYAASSLQSGVPSKFSGSGSGTDFTLTISSLQPEDVATYYCQKYNSAPFTFGPGTKVDIK
# notes: Fab version
# B3: Ab.24 Fab (Fab, V domains shown)
# VH: EVQLLESGGGLVKPGGSLRLSCAASGFTFSSYSMNWVRQAPGKGLEWVSSISTSSSFIYYADSVKGRFTISRDNAKNSLYLQMNSLRAEDTAVYYCARDLGRYYYYMDVWGKGTTVTVSS
# VL: DIVMTQSPSSLSASVGDRVTITCRASQSISSWLAWYQQKPGKAPKSLIYAASSLQSGVPSKFSGSGSGTDFTLTISSLQPEDVATYYCQKYNSAPFTFGPGTKVDIK
# notes: Fab version
# B4: Ab.25 Fab (Fab, V domains shown)
# VH: EVQLLESGGGLVKPGGSLRLSCAASGFTFSSYSMNWVRQAPGKGLEWVSSISTSSNYIYYADSVKGRFTISRDNAKNSLYLQMNSLRAEDTAVYYCARDLGRYYYYMDVWGKGTTVTVSS
# VL: DIVMTQSPSSLSASVGDRVTITCRASQSISSWLAWYQQKPGKAPKSLIYAASSLQSGVPSKFSGSGSGTDFTLTISSLQPEDVATYYCQKYNSAPFTFGPGTKVDIK
# notes: Fab version; VH cell printed as 'SEO ID NO: 32'
# B5: Ab.26 Fab (Fab, V domains shown)
# VH: EVQLLESGGGLVKPGGSLRLSCAASGFTFSSYSMNWVRQAPGKGLEWVSSISTSSNFIYYADSVKGRFTISRDNAKNSLYLQMNSLRAEDTAVYYCARDLGRYYYYMDVWGKGTTVTVSS
# VL: DIQMTQSPSSLSASVGDRVTITCRASQSISSWLAWYQQKPGKAPKSLIYAASSLQSGVPSKFSGSGSGTDFTLTISSLQPEDVATYYCQKYNSAPFTFGPGTKVDIK
# notes: Fab version
# B6: Ab.27 Fab (Fab, V domains shown)
# VH: EVQLLESGGGLVKPGGSLRLSCAASGFTFSSYSMNWVRQAPGKGLEWVSSISTSSNFIYYADSVKGRFTISRDNAKNSLYLQMNSLRAEDTAVYYCARDLGRYYYYMDVWGKGTTVTVSS
# VL: DIVMTQSPSSLSASVGDRVTITCRASQSISSWLAWFQQKPGKAPKSLIYAASSLQSGVPSKFSGSGSGTDFTLTISSLQPEDVATYYCQKYNSAPFTFGPGTKVDIK
# notes: Fab version
# B7: Ab.28 Fab (Fab, V domains shown)
# VH: EVQLLESGGGLVKPGGSLRLSCAASGFTFSSYSMNWVRQAPGKGLEWVSSISTSSNFIYYADSVKGRFTISRDNAKNSLYLQMNSLRAEDTAVYYCARDLGRYYYYMDVWGKGTTVTVSS
# VL: DIVMTQSPSSLSASVGDRVTITCRASQSISSWLAWYQQKPEKAPKSLIYAASSLQSGVPSKFSGSGSGTDFTLTISSLQPEDVATYYCQKYNSAPFTFGPGTKVDIK
# notes: Fab version
# B8: Ab.29 Fab (Fab, V domains shown)
# VH: EVQLLESGGGLVKPGGSLRLSCAASGFTFSSYSMNWVRQAPGKGLEWVSSISTSSNFIYYADSVKGRFTISRDNAKNSLYLQMNSLRAEDTAVYYCARDLGRYYYYMDVWGKGTTVTVSS
# VL: DIVMTQSPSSLSASVGDRVTITCRASQSISSWLAWYQQKPGKVPKSLIYAASSLQSGVPSKFSGSGSGTDFTLTISSLQPEDVATYYCQKYNSAPFTFGPGTKVDIK
# notes: Fab version
# B9: Ab.31 Fab (Fab, V domains shown)
# VH: EVQLLESGGGLVKPGGSLRLSCAASGFTFSSYSMNWVRQAPGKGLEWVSSISTSSNFIYYADSVKGRFTISRDNAKNSLYLQMNSLRAEDTAVYYCARDLGRYYYYMDVWGKGTTVTVSS
# VL: DIVMTQSPSSLSASVGDRVTITCRASQSISSWLAWYQQKPGKAPKSLIYAASSLQSGVPSRFSGSGSGTDFTLTISSLQPEDVATYYCQKYNSAPFTFGPGTKVDIK
# notes: Fab version
# B10: Ab.32 Fab (Fab, V domains shown)
# VH: EVQLLESGGGLVKPGGSLRLSCAASGFTFSSYSMNWVRQAPGKGLEWVSSISTSSNFIYYADSVKGRFTISRDNAKNSLYLQMNSLRAEDTAVYYCARDLGRYYYYMDVWGKGTTVTVSS
# VL: DIVMTQSPSSLSASVGDRVTITCRASQSISSWLAWYQQKPGKAPKSLIYAASSLQSGVPSKFSGSGSGTDFTLTISSLQPEDFATYYCQKYNSAPFTFGPGTKVDIK
# notes: Fab version
# B11: Ab.33 Fab (Fab, V domains shown)
# VH: EVQLLESGGGLVKPGGSLRLSCAASGFTFSSYSMNWVRQAPGKGLEWVSSISTSSNFIYYADSVKGRFTISRDNAKNSLYLQMNSLRAEDTAVYYCARDLGRYYYYMDVWGKGTTVTVSS
# VL: DIVMTQSPSSLSASVGDRVTITCRASQSISSWLAWYQQKPGKAPKSLIYAASSLQSGVPSKFSGSGSGTDFTLTISSLQPEDVATYYCQQYNSAPFTFGPGTKVDIK
# notes: Fab version
# B12: Ab.34 Fab (Fab, V domains shown)
# VH: EVQLLESGGGLVKPGGSLRLSCAASGFTFSSYSMNWVRQAPGKGLEWVSSISTSSNFIYYADSVKGRFTISRDNAKNSLYLQMNSLRAEDTAVYYCARDLGRYYYYMDVWGKGTTVTVSS
# VL: DIVMTQSPSSLSASVGDRVTITCRASQSISSWLAWYQQKPGKAPKSLIYAASSLQSGVPSKFSGSGSGTDFTLTISSLQPEDVATYYCQKYNSYPFTFGPGTKVDIK
# notes: Fab version
# B13: ATX-130 hG1 (antibody, V domains shown)
# VH: EVQLLESGGGLVKPGGSLRLSCAASGFTFSSYSMNWVRQAPGKGLEWVSSISTSSNFIYYADSVKGRFTISRDNAKNSLYLQMNSLRAEDTAVYYCARDLGRYYYYMDVWGKGTTVTVSS
# VL: DIVMTQSPSSLSASVGDRVTITCRASQSISSWLAWYQQKPGKAPKSLIYAASSLQSGVPSKFSGSGSGTDFTLTISSLQPEDVATYYCQKYNSAPFTFGPGTKVDIK
# notes: Human IgG1 form; also called ATX-130 human IgG1
# B14: Ab.22 hG1 (antibody, V domains shown)
# VH: EVQLVESGGGLVKPGGSLRLSCAASGFTFSSYSMNWVRQAPGKGLEWVSSISTSSNFIYYADSVKGRFTISRDNAKNSLYLQMNSLRAEDTAVYYCARDLGRYYYYMDVWGKGTTVTVSS
# VL: DIVMTQSPSSLSASVGDRVTITCRASQSISSWLAWYQQKPGKAPKSLIYAASSLQSGVPSKFSGSGSGTDFTLTISSLQPEDVATYYCQKYNSAPFTFGPGTKVDIK
# notes: Human IgG1 form; also called Ab.22 human IgG1
# B15: Ab.24 hG1 (antibody, V domains shown)
# VH: EVQLLESGGGLVKPGGSLRLSCAASGFTFSSYSMNWVRQAPGKGLEWVSSISTSSSFIYYADSVKGRFTISRDNAKNSLYLQMNSLRAEDTAVYYCARDLGRYYYYMDVWGKGTTVTVSS
# VL: DIVMTQSPSSLSASVGDRVTITCRASQSISSWLAWYQQKPGKAPKSLIYAASSLQSGVPSKFSGSGSGTDFTLTISSLQPEDVATYYCQKYNSAPFTFGPGTKVDIK
# notes: Human IgG1 form; also called Ab.24 human IgG1
# B16: Ab.25 hG1 (antibody, V domains shown)
# VH: EVQLLESGGGLVKPGGSLRLSCAASGFTFSSYSMNWVRQAPGKGLEWVSSISTSSNYIYYADSVKGRFTISRDNAKNSLYLQMNSLRAEDTAVYYCARDLGRYYYYMDVWGKGTTVTVSS
# VL: DIVMTQSPSSLSASVGDRVTITCRASQSISSWLAWYQQKPGKAPKSLIYAASSLQSGVPSKFSGSGSGTDFTLTISSLQPEDVATYYCQKYNSAPFTFGPGTKVDIK
# notes: Human IgG1 form; VH cell printed as 'SEO ID NO: 32'; also called Ab.25 human IgG1
# B17: Ab.26 hG1 (antibody, V domains shown)
# VH: EVQLLESGGGLVKPGGSLRLSCAASGFTFSSYSMNWVRQAPGKGLEWVSSISTSSNFIYYADSVKGRFTISRDNAKNSLYLQMNSLRAEDTAVYYCARDLGRYYYYMDVWGKGTTVTVSS
# VL: DIQMTQSPSSLSASVGDRVTITCRASQSISSWLAWYQQKPGKAPKSLIYAASSLQSGVPSKFSGSGSGTDFTLTISSLQPEDVATYYCQKYNSAPFTFGPGTKVDIK
# notes: Human IgG1 form; also called Ab.26 human IgG1
# B18: Ab.27 hG1 (antibody, V domains shown)
# VH: EVQLLESGGGLVKPGGSLRLSCAASGFTFSSYSMNWVRQAPGKGLEWVSSISTSSNFIYYADSVKGRFTISRDNAKNSLYLQMNSLRAEDTAVYYCARDLGRYYYYMDVWGKGTTVTVSS
# VL: DIVMTQSPSSLSASVGDRVTITCRASQSISSWLAWFQQKPGKAPKSLIYAASSLQSGVPSKFSGSGSGTDFTLTISSLQPEDVATYYCQKYNSAPFTFGPGTKVDIK
# notes: Human IgG1 form; also called Ab.27 human IgG1
# B19: Ab.28 hG1 (antibody, V domains shown)
# VH: EVQLLESGGGLVKPGGSLRLSCAASGFTFSSYSMNWVRQAPGKGLEWVSSISTSSNFIYYADSVKGRFTISRDNAKNSLYLQMNSLRAEDTAVYYCARDLGRYYYYMDVWGKGTTVTVSS
# VL: DIVMTQSPSSLSASVGDRVTITCRASQSISSWLAWYQQKPEKAPKSLIYAASSLQSGVPSKFSGSGSGTDFTLTISSLQPEDVATYYCQKYNSAPFTFGPGTKVDIK
# notes: Human IgG1 form; also called Ab.28 human IgG1
# How the values were obtained:
# human CD94 protein = molecular target: T1, human CD94 protein; assay: OCTET BLI, Fab on human CD94 protein
# [1] = molecular target: T2, human CD94 expressed on cells (human …); assay: flow cytometry, HEK cells expressing human CD94, 1st run
# Method: (§1) Binding of the variant antibodies to HEK cells expressing human CD94 was also tested. Variants and ATX-130 antibodies were generated in human IgG1 form, and binding to HEK cells expressing human CD94 was assessed using flow cytometry. Experiments were run in duplicate, and the average EC50 of the 2 runs was calculated.
# [2] = molecular target: T2, human CD94 expressed on cells (human …); assay: flow cytometry, HEK cells expressing human CD94, 2nd run
# Method: as §1
# [3] = molecular target: T2, human CD94 expressed on cells (human …); assay: flow cytometry, HEK cells expressing human CD94, average of 2 runs
# Method: as §1
Binder,koff (human CD94 protein) [s⁻¹],EC50 [1] [pM],EC50 [2] [pM],EC50 [3] [pM]
B1,0.0029,,,
B2,0.00238,,,
B3,0.00695,,,
B4,0.00387,,,
B5,0.00446,,,
B6,0.00421,,,
B7,0.00425,,,
B8,0.00338,,,
B9,0.00352,,,
B10,0.0031,,,
B11,0.00481,,,
B12,0.00576,,,
B13,,110,120,120
B14,,120,120,120
B15,,140,130,140
B16,,150,140,150
B17,,140,140,140
B18,,260,170,220
B19,,110,110,110
